Experimental data as given in patent US11034736B2, “Anti-viral cnidarins” (priority 2014, dated 2021).
Where two headings read alike, the source gives them in different places.

Tests used:
HIV-1RF = experiment: XTT-tetrazolium anti-HIV assay, HIV-1RF in CEM-SS cells; assay type: cell-based; details: HIV-1RF, T-tropic laboratory strain, CEM-SS cells, XTT, 6 days
Experimental: (§1) A 2,3-bis-[2-methoxy-4-nitro-5-sulfophenyl]-2H-tetrazolium-5-carboxanilide inner salt (XTT)-tetrazolium-based assay was used to determine the anti-HIV activity of CNID-1, -2 and -3 against a T-tropic laboratory strain (HIV-1RF) in T-lymphoblastic CEM-SS cells as described previously (Gulakowski et al., J. Virol. Methods, 33: 87-100 (1991)). CEM-SS cells were maintained in RPMI 1640 media without phenol red and supplemented with 10% fetal bovine serum (BioWhittaker), 2 mM L-glutamine (BioWhittaker), and 50 μg/ml gentamicin (BioWhittaker) (complete medium). Exponentially growing cells were washed and resuspended in complete medium, and a 50 μl aliquot containing 5×10^3 cells was added to individual wells of a 96-well round-bottom microtiter plate containing serial dilutions of the respective cnidarin protein in a volume of 100 μl of medium. Stock supernatants of HIV-1RF were diluted in complete medium to yield sufficient cytopathicity (80-90% cell kill in 6 days), and a 50 μl aliquot was added to appropriate wells. Plates were incubated for 6 days at 37° C. and then stained for cellular viability using XTT.
(§2) The HIV reverse transcriptase inhibitor 3′-Azido-3′-deoxythymidine (AZT) was used as a positive control. All assays were carried out in triplicate for all viruses and cells.

CEM-SS cells = experiment: Direct toxicity to uninfected CEM-SS control cells (XTT); assay type: cell-based, human
Experimental: as §1, §2

HIV-1Ba-L = experiment: HIV-1 Ba-L replication in human primary macrophage cultures, p24 ELISA; assay type: cell-based; details: M-tropic, human primary macrophages
Text: To test the anti-HIV activity of CNID1 against HIV primary isolates in fresh human cells, monocyte-tropic HIV-1 strain Ba-L was obtained from the NIAID AIDS Research and Reference Reagent Program (National Institutes of Health, Bethesda, Md.). The low passage HIV-1 pediatric isolate ROJO was derived as described previously (Buckheit et al., AIDS Res. Hum. Retroviruses, 10: 1497-1506 (1994)). Human peripheral blood mononuclear cells (PBMCs) and macrophages were isolated from hepatitis and HIV seronegative donors following Ficoll-Paque centrifugation as described elsewhere (Gartner & Popovic, Techniques in HIV Research, Aldovini, A. and Walker B., eds., pp. 59-63, Stockton Press, New York, 1990). Antiviral assays were carried out with 3-day-old phytohaemagglutinin/interleukin-2 stimulated PBMCs or 6-day-cultured monocyte/macrophages. […] HIV-1 replication in PBMC (ROJO) or monocyte macrophage (Ba-L) cultures were determined by measurement of reverse transcriptase activity (Buckheit et al., Antiviral Res., 21: 247-265 (1993)) in the supernatants or p24 antigen expression by ELISA (Coulter, Hialeah, Fla.), respectively. Cell viability by formazan dye reduction was determined in replicated cultures using the CellTiter reagent (Promega, Madison, Wis.). […]

[1] = tested on: HeLa CD4 LTR β-galactosidase cells; experiment: Cytotoxicity in the attachment and fusion assays; assay type: cell-based
Experimental: as §2
Attachment and fusion assays were performed in HeLa-CD4-LTR-β-galactosidase cell lines as described previously (Gartner & Popovic, (1990), supra) with the following modifications. Following the interaction of HIV-1IIIIIB with HeLa CD4 LTR β-gal cells, viral attachment to HeLa CD4 LTR β-gal cells was detected as cell-associated p24 antigen following a 1 hour adsorption of virus and vigorous washing for removal of unbound virus. Fusion of HIV-1IIIIB with HeLa CD4 LTR β-gal cells was detected by chemiluminescence using a single-step lysis and detection method (Tropix Gal-screen, Bedford, Mass.) and results reported as EC50 values. Chicago Sky Blue, a polysulfonic acid dye inhibitor of HIV attachment and fusion, was used as a positive control for all assays (Clanton et al., J. Acquired Immune Defic. Syndr., 5: 771-781 (1992)).

B1: CNID-1: HIV-inhibitory protein from soft coral Synthecium sp.; 172 amino acids, 18,122 Da, SEQ ID NO: 1 (protein)
chain: GRATLGQLKTSTIPPVTFDVPFDGANIPQDVRFTIATVNGGKGALYNAELGESAGHTIVLESDGDHPIPGTFDPKSGRGLDYLPRGLVLFSSHNYVGNMKMYTEPDSDITADFPPGTPFGVSSAITGEGSAFQLNTGIDHTGEFEIIPPNTKRNLAGVFDNEIRSVSPTGGK
Q: Which EC50 (HIV-1RF) does the source give for B1 here?
A: 0.0845 nM

Q: What about the CC50 (CEM-SS cells) of the same molecule?
A: 112 nM

Q: And the EC50 (HIV-1Ba-L)?
A: 1.05 nM

Q: What about the CC50 ([1]; attachment assay, read-out: Inhibition of Attachment CC50) of the same molecule?
A: > 55.2 nM

Q: What about the CC50 ([1]; fusion assay, read-out: Inhibition of Fusion CC50) of the same molecule?
A: > 55.2 nM
